B1: sENG(D):BMP9 complex (complex)
chain 1: ETVHCDLQPVGPERGEVTYTTSQVSKGCVAQAPNAILEVHVLFLEFPTGPSQLELTLQASKQNGTWPREVLLVLSVNSSVFLHLQALGIPLHLAYNSSLVTFQEPPGVNTTELPSFPKTQILEWAAERGPITSAAELNDPQSILLRLGQAQGSLSFCMLEASQDMGRTLEWRPRTPALVRGCHLEGVAGHKEAHILRVLPGHSAGPRTVTVKVELSCAPGDLDAVLILQGPPYVSWLIDANHNMQIWTTGEYSFKIFPEKNIRGFKLPDTPQGLLGEARMLNASIVASFVELPLASIVSLHASSCGGRLQTSPAPIQTTPPKDTCSPELLMSLIQTKCADDAMTLVLKKELVAHLKCTITGLTFWDPSCEAEDRGDKFVLRSAYSSCGMQVSASMISNEAVVNILSSSSPQRKKVHCLNMDSLSFQLGLYLSPHFLQASNTIEPGQQSFVQVRVSPSVSEFLLQLDSCHLDLGPEGGTVELIQGRAAKGNCVSLLSPSPEGDPRFSFLLHFYTVPIPKTGTLSCTVALRPKTGSQDQEVHRTVFMRLNIISPDLSGCTSKG
chain 2: SAGAGSHCQKTSLRVNFEDIGWDSWIIAPKEYEAYECKGGCFFPLADDVTPTKHAIVQTLVHLKFPTKVGKACCVPTKLSPISVLYKDDMGVPTLKYHYEGMSVAECGCR
B2: sENG(D):BMP10 complex (complex)
chain 1: B1 chain 1
chain 2: NAKGNYCKRTPLYIDFKEIGWDSWIIAPPGYEAYECRGVCNYPLAEHLTPTKHAIIQALVHLKNSQKASKACCVPTKLEPISILYLDKGVVTYKFKYEGMAVSECGCR
B3: sENG(M):BMP9 complex (complex)
chain 1: B1 chain 1
chain 2: B1 chain 2
B4: sENG(M):BMP10 complex (complex)
chain 1: B1 chain 1
chain 2: B2 chain 2
B5: BMP10 growth factor domain (GFD) dimer (ligand)
chain: B2 chain 2
B6: BMP9 growth factor domain (GFD) dimer (ligand)
chain: B1 chain 2

The first experiment has as its target T1, ALK1-Fc (UniProt P37023 22-118). As to the kind of experiment: SPR. For orientation: Surface plasmon resonance follows binding to a sensor surface in real time, without labels.
For the molecule B1, the affinity, expressed as Kd, was 0.422 nM. On the same count and under the same terms, next, B2: 2.97 nM; B3: 0.179 nM; B4: 1.68 nM.

In the next experiment the target is T1, ALK1-Fc. As to the kind of experiment: SPR. This is another data set of the same source.
As to B5, the koff was 0.000169 s⁻¹. With B1, the koff stood at 0.000236 s⁻¹. This koff and that of the molecule before are within 1.5-fold of each other. In turn, B2 gave a koff of 0.000329 s⁻¹.

For B3, the koff amounted to 0.000124 s⁻¹. Same read-out and setting: the result for B6 reads 0.000162 s⁻¹. Still for that read-out and setting: next, B4: 0.00017 s⁻¹.

Usually Kd stands for the free concentration of one partner at which half of the binding sites on the other are occupied at equilibrium, for simple one-to-one binding. A word on the koff: it is the rate constant with which the complex falls apart. Higher therefore signals a short-lived complex.

Values taken from PMC12824264 (2025).
